Test results published in patent US20140302123A1.

B1: GluD2-13 (peptide)
peptide: LNLGNDPDRGTSI
modifications: not checked
B2: EIRL-13 (peptide)
peptide: SWESYRSGGEIRL
modifications: not checked
B3: GluN2A-16 (peptide)
peptide: SNRRVYKKMPSIESDV
modifications: not checked

Legend:
[1] = molecular target: T1, PTPN4-PDZ (residues G499-N604) (human), P29074; experiment: NMR titration, 15N-labeled PTPN4-PDZ with unlabeled peptide
T1 chain: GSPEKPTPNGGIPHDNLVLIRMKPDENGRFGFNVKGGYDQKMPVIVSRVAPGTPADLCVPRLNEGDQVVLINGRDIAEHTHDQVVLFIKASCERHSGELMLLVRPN

[2] = molecular target: T1, PTPN4-PDZ (residues G499-N604) (human), …; experiment: NMR titration

Row | Binder | Kd [1] [µM] | fold increase in affinity against Cyto13-att [2] [fold]
1 | B1 | 128 | 
2 | B2 | 1170 | 
3 | B3 | 42 | 4
